In data set [1] the test system is MM1.S (Luc) cells. Kind of data set: MM.1S Luc xenograft multiple myeloma model in C.B-17 SCID mice, dose escalation (Example 7). The data set is classed as in vivo.
Data set [2] in a line: Differential scanning fluorescence (DSF) thermal stability. The data set is classed as physicochemical. To be noted: PBS pH 7.4, 25-95 °C, first thermal transition. The text has this: Thermal stability represents an important property of antibodies and is used as a predictive surrogate of pharmaceutical drug stability in humans based on a relative stability profile as characterized by differential thermal melting profiles. Several methods exist for evaluation of product stability based on thermal melting. These include, for example, circular dichroism (CD), differential scanning calorimetry (DSC), and differential scanning fluorescence (DSF), among others. In this example, the thermal stabilities of select humanized anti-CD138 antibodies were evaluated by DSF. DSF was used to monitor the conformational stability of a protein as it was exposed to increasing thermal stress. The dye, SYPRO Orange®, fluoresces in a hydrophobic environment, such as hydrophobic core residues that are exposed during thermally triggered protein unfolding, or denaturation. In brief, SYPRO® Orange Dye (Sigma Chemical) was diluted 1:500 in phosphate buffered saline (PBS), pH 7.4, without addition of any detergents. Antibodies were likewise diluted in PBS to a target concentration of 0.5 mg/mL. 15 μl of diluted antibody and fluorescent dye were added 1:1 (v/v) into a 96 well microtiter plate and thoroughly mixed by repeat pipetting. Thermal scans were carried out using a real-time quantitative PCR (qPCR) thermal cycler with fluorescence detection capabilities. Scans were initiated at 25° C. with incremental increase in well temperature of 1° C. ramp/minute from 25° C. to 95° C. The mid-point (Tm) between native state and the first unfolding event was reported as the transition temperature or melt temperature (TM). TMs were then calculated based on transformation of the data using the first derivative of the fluorescence signal versus time. (dfluoresence/dtime) (FIG. 7).
Background: DSF heats the sample and reads unfolding from a dye or from intrinsic fluorescence.

Data set [3] can be described thus: Antibody production titers in Chinese hamster ovary cells. To be noted: CHO transient transfection, after Protein A purification. The text has this:
The yields represent antibody amounts following purification from cell culture media by Protein A affinity chromatography, carried out under identical transfection conditions and culture scale. Differential pre-purification titers based on quantification using Protein-A biosensors (bio-layer interferometry) of antibody in culture media was also noted likewise indicating differential expression levels (antibody titers).

B1: mAb 2810: parental mouse-human chimeric anti-CD138 antibody; VH SEQ ID NO: 296, VL SEQ ID NO: 292 (antibody, V domains shown)
VH: QVQLHQPGTSLVKPGASVKLSCKASGYSFSSYYMHWVKQRPGQGLEWIGTIHPSDSTTNYNQKFKGKATLTVDKSSRTAYMQLNSLTFEDSAVYYCANFVYWGQGTSVTVSS
VL: DIVITQDELSNPVTSGDSVSISCRSSKSLLYKDGKTYLNWFLQRPGQSPQLLIYVVSTRASGVSDRFSGSGSGTDFTLEISRVKAEDVGVYYCQQLVEYPYTFGGGTKLEIK
For B1, the “Median % T/C (whole body BLI)” value in data set [1] (day 35, vs vehicle control) is recorded as 13.1%. Besides, the “Tumor growth delay (time to median BLI of 1.0×10^9 p/s) relative to vehicle control” value in data set [1] (i.p. twice weekly, mAb 4320 4, 8, 16 mg/kg, mAb 2810 4 mg/kg) amounted to 6.6 days. Also, the TM1 in data set [2] is 61.9 °C. In data set [3], the Expression was found to be 30.2 mg/L.

The record behind these values is patent publication US12338291B2, “Humanized antibody molecules to CD138 and uses thereof” (VISTERRA, INC., priority 2019, dated 2025).
